Patent US20020002269A1, “ARTEMIN, A NEUROTROPHIC FACTOR” (priority 1998, published 2002)

Tests used:
[1] = molecular target: T1, RET (Rattus norvegicus, UniProt G3V9H8); assay: Western blot of RET phosphorylation and MAP kinase activation in SCG neurons; assay type: cell-based; conditions: 50 ng/ml for 20 minutes, FIG. 9A
T1 construct: endogenous in cells
Method: In brief, SCG neurons were dissected from postnatal day 1 (P1) rats and maintained in NGF-containing medium for 5 days, after which they were deprived of NGF by switching to NGF-free medium in the presence of anti-NGF antibodies. After 2 hours without NGF, neurons were switched to medium containing NGF, GDNF or artemin at 50 ng/ml for 20 minutes. Cells were washed in cold PBS, and collected in immunoprecipitation buffer (1 mM EDTA/1 mM EGTA/0.2 mM NaVO3/1 mM Pefabloc/1 uM pepstatin A/10 ug/ml leupeptin/2 ug/ml aprotinin/1% Triton X-100/0.5% Nonidet P-40/150 mM NaCl in 10 mM Tris, pH 7.4). The lysates were incubated with 30 μl agarose-conjugated anti-phosphotyrosine antibodies (Calbiochem) at 4° C. for 1 hr. Beads were then washed three times with immunoprecipitation buffer, resuspended in SDS sample buffer, and boiled for 5 min. Samples were separated using SDS-PAGE, and transferred to nitrocellulose membranes. Membranes were blocked for 1 hr at 25° C. in TBS containing 5% dry milk, incubated overnight 4° C. with a 1:300 dilution of anti-Ret antibody (C-19; Santa Cruz), then washed (3× in TBS containing 0.1% Tween-20) and incubated in a 1:10,000 dilution of anti-rabbit antibodies conjugated to HRP (Jackson Immunoresearch). Membranes were washed 3×, incubated with SuperSignal ULTRA (Pierce) for 5 minutes, then exposed to film. For MAP kinase (MAPK) assays, a portion of the total lysate wars removed before immunoprecipitation, separated by SDS-PAGE, and immunoblotted using an anti-phospho-MAP-kinase antibody (New England Biolabs).

[2] = test system: dorsal root ganglion (DRG) neurons; assay: Survival of cultured dorsal root ganglion neurons; assay type: cell-based, rat
Method: Each GDNF ligand family member consisted of the human mature amino acid sequence and was produced by standard recombinant DNA methods. Recombinant GDNF, neurturin and persephin were obtained from Genentech while recombinant artemin was produced as described in Example 3.
The cultures were performed using standard methods described elsewhere (Kotzbauer et al., Neuron 12:763-773, 1994; Kotzbauer et al., Nature 384:467-470, 1996; Milbrandt et al., Neuron 20:245-253, 1998). In brief, for SCG neurons, after dissection and dissociation, neurons were plated on collagen-coated 24-well tissue culture plates and maintained in NGF-containing medium (AM50) for 5 days, after which they were either kept in AM50 or switched to medium containing neutralizing anti-NGF antibodies plus GDNF, neurturin, persephin, artemin, (50 ng/ml where not noted otherwise), or no growth factors. Cultures were maintained for 3 days, after which they were fixed in 4% paraformaldehyde and stained with toluidine blue, and surviving neurons were counted. For nodose ganglion and dorsal root ganglion neuron cultures, dissociated neurons were plated directly into NGF (for dorsal root ganglia), or BDNF (for nodose ganglia, 100 ng/ml) or one of the GDNF ligands in serum-containing medium (AM50 with anti-NGF antibodies), and cells surviving after 3 days in culture were counted as above. Trigeminal ganglia were dissected, dissociated, and plated directly into medium containing NGF or the indicated GDNF ligands, and the number of surviving cells was assessed after 3 days in vitro. For all culture systems, 2-3 independent experiments were performed.

[3] = molecular target: T2, GFRα2/RET (Homo sapiens, UniProt O00451+P07949); assay: Ga14-Elk/Ga14-Luc reporter in RET-3T3 fibroblasts transfected with GFRα2; assay type: cell-based; conditions: RET-3T3, 50 ng/ml for 6-8 hours, FIG. 10A
T2 construct: expressed in transfected cells; host or cells: MG87 fibroblasts stably expressing human RET (RET-3T3), transiently transfected with the CMV-GFRα2 plasmid
Method: Thus, to directly test which receptor combinations can form functional receptors for artemin, expression plasmids for the individual GFRA coreceptors together with the Ga14-Elk/Ga14-Luc reporter system were transiently transformed into fibroblasts that stably express RET. […]
NLF neuroblastoma cells, which naturally express GFRα2/RET (Tansey et al., submitted), or the RET-3T3 cells were plated at 85,000 cells/well in 12-well plates, and cotransfected with the reporter plasmids Ga14-Luc and CMV-Ga14-Elk (250 ng/well and 50 ng/well, respectively), CMV-lacZ (50 ng/well) for transfection normalization, one of the CMV-GFRA expression plasmids (500 ng/well), and pBluescript (650 ng/well) as carrier for a total of 1.5 μg DNA/well using the Superfect reagent (Qiagen) according to the manufacturer's instructions. […] Measurement of luciferase and β-galactosidase activity was measured using a luminometer and performed as described (Svaren et al., EMBO J 17:6010-6019, 1998). The average luciferase activity of duplicate samples was normalized to β-galactosidase activity of the cotransformed lacZ reporter, and fold activation was calculated by dividing the normalized activity in factor-treated cells by that in the no treatment control.

[4] = test system: CHP126 neuroblastoma cell line; assay: Responsiveness of a neuroblastoma cell line that does not express RET (CHP126); assay type: cell-based; conditions: data not shown
[5] = 50 ng/ml, 3 days in culture, FIG. 7A

T1 sequence (G3V9H8 24-1115): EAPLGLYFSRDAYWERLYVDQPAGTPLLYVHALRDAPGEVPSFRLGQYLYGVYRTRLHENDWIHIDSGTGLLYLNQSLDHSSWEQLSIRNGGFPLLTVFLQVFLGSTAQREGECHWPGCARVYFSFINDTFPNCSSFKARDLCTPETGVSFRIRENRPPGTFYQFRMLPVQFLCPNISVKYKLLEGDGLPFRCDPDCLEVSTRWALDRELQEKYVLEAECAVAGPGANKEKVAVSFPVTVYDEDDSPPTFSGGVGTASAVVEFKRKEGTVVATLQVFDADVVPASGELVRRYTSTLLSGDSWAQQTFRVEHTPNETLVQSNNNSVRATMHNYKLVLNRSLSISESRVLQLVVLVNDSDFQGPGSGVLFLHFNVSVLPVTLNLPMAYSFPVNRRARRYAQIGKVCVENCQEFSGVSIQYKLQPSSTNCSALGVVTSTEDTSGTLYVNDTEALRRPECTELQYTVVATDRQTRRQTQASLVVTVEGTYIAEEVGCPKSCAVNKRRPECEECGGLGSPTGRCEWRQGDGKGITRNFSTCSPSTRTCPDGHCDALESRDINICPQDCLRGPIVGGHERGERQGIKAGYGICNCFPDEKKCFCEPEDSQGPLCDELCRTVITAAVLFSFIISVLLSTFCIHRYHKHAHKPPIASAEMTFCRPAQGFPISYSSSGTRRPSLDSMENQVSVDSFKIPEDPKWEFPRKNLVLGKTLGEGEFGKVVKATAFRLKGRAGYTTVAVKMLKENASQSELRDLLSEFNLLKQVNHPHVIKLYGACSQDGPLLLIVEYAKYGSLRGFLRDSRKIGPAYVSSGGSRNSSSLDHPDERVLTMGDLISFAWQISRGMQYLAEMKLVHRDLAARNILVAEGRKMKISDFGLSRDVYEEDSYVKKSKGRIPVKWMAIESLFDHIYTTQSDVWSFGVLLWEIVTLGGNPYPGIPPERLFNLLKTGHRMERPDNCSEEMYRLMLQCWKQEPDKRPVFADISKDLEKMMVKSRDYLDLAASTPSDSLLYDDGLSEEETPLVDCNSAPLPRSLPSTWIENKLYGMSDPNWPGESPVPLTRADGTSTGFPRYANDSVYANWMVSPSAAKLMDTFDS
T2 sequence (O00451 22-444 limits assumed): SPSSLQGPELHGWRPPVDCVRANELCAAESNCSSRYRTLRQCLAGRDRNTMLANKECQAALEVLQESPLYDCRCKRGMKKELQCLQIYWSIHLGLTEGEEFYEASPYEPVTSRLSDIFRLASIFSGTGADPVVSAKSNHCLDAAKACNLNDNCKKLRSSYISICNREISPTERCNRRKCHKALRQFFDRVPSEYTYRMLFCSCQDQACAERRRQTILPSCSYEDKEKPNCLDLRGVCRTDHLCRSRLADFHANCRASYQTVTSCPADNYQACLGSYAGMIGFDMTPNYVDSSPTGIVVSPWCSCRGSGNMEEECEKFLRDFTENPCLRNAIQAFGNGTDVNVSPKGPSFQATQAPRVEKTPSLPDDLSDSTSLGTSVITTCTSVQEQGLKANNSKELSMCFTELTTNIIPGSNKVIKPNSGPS
T2 sequence (P07949 29-1114): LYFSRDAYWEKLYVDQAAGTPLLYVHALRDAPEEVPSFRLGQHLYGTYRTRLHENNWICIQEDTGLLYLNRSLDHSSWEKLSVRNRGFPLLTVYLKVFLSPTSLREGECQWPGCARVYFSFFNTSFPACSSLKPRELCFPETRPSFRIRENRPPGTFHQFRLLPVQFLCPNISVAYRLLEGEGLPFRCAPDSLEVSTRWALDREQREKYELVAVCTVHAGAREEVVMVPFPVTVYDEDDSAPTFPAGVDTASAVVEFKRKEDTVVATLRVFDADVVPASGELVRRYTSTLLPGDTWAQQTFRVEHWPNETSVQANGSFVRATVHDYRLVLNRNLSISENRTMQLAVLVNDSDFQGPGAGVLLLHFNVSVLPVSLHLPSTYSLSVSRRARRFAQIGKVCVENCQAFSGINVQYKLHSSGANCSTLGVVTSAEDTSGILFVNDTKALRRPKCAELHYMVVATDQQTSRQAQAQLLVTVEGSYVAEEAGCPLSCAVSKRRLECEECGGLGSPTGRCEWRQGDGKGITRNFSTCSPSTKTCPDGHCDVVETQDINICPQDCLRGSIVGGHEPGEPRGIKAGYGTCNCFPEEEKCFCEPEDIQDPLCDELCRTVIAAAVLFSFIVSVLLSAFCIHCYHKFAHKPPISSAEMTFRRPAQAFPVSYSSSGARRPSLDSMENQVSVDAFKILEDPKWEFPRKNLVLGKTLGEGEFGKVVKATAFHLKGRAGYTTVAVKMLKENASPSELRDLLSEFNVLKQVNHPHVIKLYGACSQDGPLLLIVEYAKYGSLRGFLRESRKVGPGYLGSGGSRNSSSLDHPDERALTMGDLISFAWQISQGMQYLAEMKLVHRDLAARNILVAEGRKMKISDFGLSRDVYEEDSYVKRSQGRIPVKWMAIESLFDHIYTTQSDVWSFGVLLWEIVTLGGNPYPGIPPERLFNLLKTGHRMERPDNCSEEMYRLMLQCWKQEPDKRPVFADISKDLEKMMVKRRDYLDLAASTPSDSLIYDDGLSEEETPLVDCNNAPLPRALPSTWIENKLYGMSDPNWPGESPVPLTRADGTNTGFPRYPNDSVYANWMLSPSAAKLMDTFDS

Row | Molecule | downstream signaling (activation of the MAP kinase pathway) in SCG neurons [1] | tyrosine-phosphorylation of RET in SCG neurons [1] | survival of DRG sensory neurons [2, 5] | number of DRG neurons supported compared with GDNF or neurturin ([2]; 50 ng/ml, FIG. 7A) | EC50 of survival promoting effect on DRG neurons ([2]; dose response, P1 rat DRG neurons, 3 days in culture, FIG. 7B) [ng/mL] | EC50 ([2]; dose response, P1 rat DRG neurons, molar figure, FIG. 7B, read-out: EC50 of survival promoting effect on DRG neurons) [nM] | activation of RET signaling in cells expressing GFRα2/RET (luciferase reporter) [3] | response of CHP126 cells [4]
1 | artemin: recombinant mature human artemin (FIG. 3A, SEQ ID NO:3) with 8-histidine tag, produced in E. coli; GDNF family neurotrophic factor | effective in eliciting downstream signaling | induced tyrosine-phosphorylation of RET | supported the survival of a subset of sensory neurons | supported a larger number of neurons than GDNF or neurturin | 1 to 3 | ~0.1 | not GFRα2/RET | did not respond
2 | GDNF: recombinant human mature GDNF obtained from Genentech (protein, UniProt P39905 78-211, looked up) Glial cell line-derived …: SPDKQMAVLPRRERNRQAAAANPENSRGKGRRGQRGKNRGCVLTAIHLNVTDLGLGYETKEELIFRYCSGSCDAAETTYDKILKNLSRNRRLVSDKVGQACCRPIAFDDDLSFLDDNLVYHILRKHSAKRCGCI |  | induced tyrosine-phosphorylation of RET | supported the survival of a subset of sensory neurons |  |  |  | activated RET signaling | did not respond
